Data published in IntAct's records for PubMed 15350535.

Molecular target: PAK1, Q13153-2
Sequence (Q13153 other isoform, or with tags, fused parts or gaps): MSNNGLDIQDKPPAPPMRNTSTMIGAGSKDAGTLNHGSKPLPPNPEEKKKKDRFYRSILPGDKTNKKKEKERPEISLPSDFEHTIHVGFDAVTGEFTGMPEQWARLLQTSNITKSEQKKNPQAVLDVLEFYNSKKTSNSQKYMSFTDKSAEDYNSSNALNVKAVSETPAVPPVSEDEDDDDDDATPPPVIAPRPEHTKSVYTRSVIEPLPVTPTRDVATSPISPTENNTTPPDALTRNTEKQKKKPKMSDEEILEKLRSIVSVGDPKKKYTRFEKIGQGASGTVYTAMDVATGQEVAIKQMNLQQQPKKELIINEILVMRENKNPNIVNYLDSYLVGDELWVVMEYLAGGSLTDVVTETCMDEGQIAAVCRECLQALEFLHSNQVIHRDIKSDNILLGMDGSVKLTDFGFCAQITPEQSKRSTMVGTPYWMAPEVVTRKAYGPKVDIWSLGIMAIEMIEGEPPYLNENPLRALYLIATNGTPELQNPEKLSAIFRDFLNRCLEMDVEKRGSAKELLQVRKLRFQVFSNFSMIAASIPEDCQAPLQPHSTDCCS

effect of a mutation on the interaction: decreasing interaction
Substance: Rho-related GTP-binding protein RhoU (Homo sapiens), Q7L0Q8 T63N
